Experimental findings from PMC11974885 (bioRxiv, 2025) are described below.

The target in this test is T1, DbfS sensory domain, DbfS^SD-6xHis (Vibrio cholerae, UniProt Q9KRK1 43-171).
T1 sequence: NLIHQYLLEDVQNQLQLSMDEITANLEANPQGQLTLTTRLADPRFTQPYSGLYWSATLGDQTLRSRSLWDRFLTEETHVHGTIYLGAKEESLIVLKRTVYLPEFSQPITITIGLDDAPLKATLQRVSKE
Kind of test: MST.

B1: DbfQ (processed, 6xHis tag-cleaved) (natural protein)
chain: DNKVRDWEQGSYREGTQIEIDEDQDDVYRAVQKGLIRPFAELYATVDQQLNGRLIKVELDEDDDEWIYELKLVYDNQVFRVEYNAATLELMSIRGRNVIRAIKK
modifications: Red-NHS dye, amine-reactive, covalent (in the MST experiments only)
Molecule B1 displayed a Kd of 30 nM.

Usually Kd stands for the equilibrium constant for the complex coming apart. Low readings indicate tighter binding, high ones weaker binding.
